# Test results taken from US20210403538A1.
# Tests used:
# [1] = molecular target: MARV GP [change] (Lake Victoria marburgvirus) (UniProt Q1PD50)
# [2] = molecular target: SUDV GP [change] (Sudan ebolavirus) (UniProt Q7T9D9)
# [3] = molecular target: BDBV GP [change] (Bundibugyo ebolavirus (BDBV), strain 200706291 Uganda); assay: ELISA, coated recombinant GP ΔTM
# [4] = molecular target: EBOV GP [change] (Zaire ebolavirus (EBOV), strain Makona); assay: ELISA, coated recombinant GP ΔTM
# [5] = molecular target: SUDV GP [change] (Sudan ebolavirus (SUDV), strain Gulu) (UniProt Q7T9D9); assay: ELISA
Substance,EC50 [1] [µg/mL],EC50 [2] [µg/mL],EC50 [3] [µg/mL],EC50 [4] [µg/mL],EC50 [5] [µg/mL]
KZ52 (antibody),> 10,> 10,> 10,0.014,–
4G7 (antibody),> 10,> 10,> 10,0.018,–
rEBOV-520 LALA,–,–,–,–,0.377
